Assay results published in the nanobody polyreactivity screen of Harvey et al. (2022).

Assay: yeast display, Sf9 membrane polyspecificity reagent, FACS + sequencing; frameworks hold sequencing errors
In short: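 Galactose induction of a Saccharomyces cerevisiae BJ5465 synthetic nanobody display library ran 36–48 hours. The cells were then stained for 1 hour at 4 °C with 10% biotinylated, detergent-solubilized Sf9 membrane reagent, pulled down on streptavidin microbeads and FACS-sorted into low and high (top ~1%) gates on expression and reagent-binding fluorescence. Labels for polyreactivity follow the gate of origin.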

Sequence	polyreactivity (PSR sort gate)
QVQLVESGGGLVQAGGILRLSCAASGRTIDHYAKGSYRKAPGKERELVAAISTTGGSTYYADSVKGRFTISRDNAKNTVYLQMNSLKPADTAVYYCAARGLRTGGYWGQGTQVTVSS	high polyreactivity
QVQLVESGGGLVQAGGILRLSCAASGRTLDYSAMGWYRQAPGKERELVASITSGGSTNYADSVKGRFTISRDTAKNTVYLQMNSLKPEDTEVYYCAADSAFYRDVKSNYWGQGTQVTVSS	low polyreactivity
QVQLVESGGGLVQAGGILRLSCAASGRTYGGYAMGWYRQAPGKERELVASITSTGGTHYSDSVKGRFTISRDNAKNTVYLQMNSLKPEDTAVYYFAAGYYYWKYDYWGQGTQVTVSS	high polyreactivity
QVQLVESGGGLVQAGGILRLSCAASGSIFGSYAMGWYRQAPGKERELVAGITYRGSSTYYADSVKGRFTISRDNAKNTVYLQMNSLKPEDTAVYYCAADPVFDEYDYWGQGTQVTVSS	low polyreactivity
QVQLVESGGGLVQAGGILRLSCAASGSIFRVYAMGWYRQAPGKVRELVASISRRGGSTYYADSVKGRFTISRDNAKNTVYLQMNSLKPEDTAVYYCAATTYSGFDYCGQGTQVTVSS	high polyreactivity
QVQLVESGGGLVQAGGILRLSCAASGSIFSSYGMGRYRQAPGKERELVAAITRGGGSTYYADSVKGRFTISRDNAKNTVYLQMNSLKPEDTAVYYCAARGWRYSYTSVLFDYWGQGTQVTVSS	high polyreactivity
QVQLVESGGGLVQAGGILRLSCAASGSIFYGNDMGWYRQEPGKEREFVAGISWSGGSTYYADSVKGRFTISRDNAKNTVYVQMNSLKPEETAVYYCAAVRWGSYTLSDDYWGQGTQVTVSS	low polyreactivity
QVQLVESGGGLVQAGGILRLSCAASGSIYKPNTMGWYRQAPGKERELVAAITRGGRTKYADSVKGRFTISRDNAKNTVYLQMNSLKPEDTAVYYCNKARYTVISYDEYDDWGQGTQVTGSS	high polyreactivity
QVQLVESGGGLVQAGGILRLSCAASGSIYSGYAMGWYIQAPAKEREFVAAITSTSGSTYYADSVKVRFTISRDNAKNSVYLQMNSLKPEDTAVYYWAGYRYRYYSYDSWGQGTHVTVSS	high polyreactivity
QVQLVESGGGLVQAGGILRLSCAASGSTFAYNAMGWYRQEPGKERELFAAISWSGGTTYYADSVKGRFTISRDNAKTTVYLQMNSLKPEDTAVYYCNAVYYPSYQQVRAHDYWGQGTQVTVSS	high polyreactivity
QVQLVESGGGLVQAGGILRLSCAASGSTFDYNTMGWYRQAPGKERELVAAISESGGSTYYADSVKGRFTISRDNAKNTVYLQMNSLKPEDTAVYYCATDDFGGYFGEYDYWGQGTQVTVSS	low polyreactivity
QVQLVESGGGLVQAGGILRLSCAASGSTFGYYTMGWYRQAPGKEREFVAAITRRGGSTYYADSVKGRFTISRDNAKNTVYLQMNSLKPEDTAVYYCAAESRYQPHYGYWGQGTQVTVSS	high polyreactivity
QVQLVESGGGLVQAGGILRLSCAASGSTLTYYTMGWYRQAPGKERELVAHISWSSGRTYYADSVKGRFTISRDNAKNTVYLQMNSLKPEDTAVYYCNADRTYYRGLDYWGQGTQVTVSS	high polyreactivity
QVQLVESGGGLVQAGGILRLSCAASGSTMGYYPMGWYRQEPGKERELVAAIRYSDGNTYYADSVKGRFTISRDTAKNTVYLQMNSLKPEDTAVYYCAADGGYYGRDYWGQGTQVTVSS	high polyreactivity
QVQLVESGGGLVQAGGILRLSCAASGYIFVRNAMGWYRQAPGKERELVAAISGSGGSTYYADSVKGRFTISRDNAKNTVYLQMNRLKPEDTEVYYCAADYATVTWRGIAYDYWGQGTQVTVSS	low polyreactivity
QVQLVESGGGLVQAGGILRLSCAATGTTFSYYPMGWYRQAPGKERELVAAITNGGSTYYADSVKGRFTISRDNAKNTVYLQMNSLKPEDTAVYYCAADVSYWPYARYQRYPRYDYWGQGTQVTVSS	low polyreactivity
QVQLVESGGGLVQAGGILRLSCASSGITFRQYAMEWYRQAPGKERELVATITSRGGSTYYADSVKGRFTISRDNAKNSVYLQMISLKPEDTADYYCAAKTPTKDRGSDFDYWGQCTQVTVSS	high polyreactivity
QVQLVESGGGLVQAGGILRLSCASSGSICYWYAMGWYRQAPGKERELVASITGGGSKKYAESLKGRFTISRDNANNSVYLQINSLKREDTAVYYCAARYGQPWGSRYYYWGQVTQVTVSS	high polyreactivity
QVQLVESGGGLVQAGGILRLSCDASGSTFVLYAMGWYRQAPGKERELVAAIRKSGGSTYYADSVKGRFTISRDNAKIYVYLQMNSLKPEDTAVYYCNATNYIYEYHYWGQGTQVTVSS	low polyreactivity
QVQLVESGGGLVQAGGILRLSFAASGRIFTHYAMAGYRPAPGKERELVAAIRYSGGRTYYADSVKGRFTLSRDNAKNTVYLQMNSRKPEDTAVYYCAAEGFGGSFRSFYTIYDYWGQGTLVTVSS	high polyreactivity
QVQLVESGGGLVQAGGILRLSSDTSRSIFSTNGMGWYRPAHGKERELVAAMSTGGRKYYADSVKVRFTISRDNAKNTVYLQMNSLIPEDSAVFYCAIDHWTTSYDEGYYWGQGTQVTVSW	low polyreactivity

Sequence	polyreactivity (PSR sort gate)
QVQLVESGGGLVQAGGILRLSWAASGSTFTAYAMGWYRQAPGKERELVAAINTSGGNTYYADSVKGRFTISRDNAKNTVYFQMNSLKPEDTAVYYCAADYKARYSEKFDYWGQGTQVSVSS	low polyreactivity
QVQLVESGGGLVQAGGILRLTCAASGRIFIYYAMGWYRQAPGKERELVAAISWGGGRTYYADSVKGRFTISRDNAKNTVYLQMNSLKPEDTAVYNCAAGVYTGQHEYDYWGQGTQVTVSS	low polyreactivity
QVQLVESGGGLVQAGGILSLSSAAYGRISVFYTMGWYIQAPGKERELVAVIRTAGGRTKYADSVKGRFTISRDNAKNTVYLQMNSLKPEDTAVYYCADRVVRYGYKYYYWGQGTQVTVSS	low polyreactivity
QVQLVESGGGLVQAGGNLRLSCAASGFIFTRYAMGWYRPAPGKERELVAAISTSGDRTYYADSVKGRFTISRDNAKNTVYVQMHSLKPEDTAVYFCAVVRRRSVGRYVYWGQGTQVTVSS	high polyreactivity
QVQLVESGGGLVQAGGRHRLSCAASGRTFWGYGMGWYRQPPGKDRELVATISSGGSTYYEDSVKGRFTISRDNAMNTVYLQMNSLKPEDTAVYYCAARPPRSYWRYQSDYWGLGTQVTVSS	high polyreactivity
QVQLVESGGGLVQAGGRIRLSCAASGSTYGLNAMGWYRQDPGNEREMVAAITFISGSTNYADSVKGRFSISRDNAKNTVYLQMNSLKPEDTAVYYCAGDSVYYAGYDDDYWGLGTQVTVSS	low polyreactivity
QVQLVESGGGLVQAGGRLGLSCAASGRSFPWYTMGWYRQATGKERELVAAISSSGSTTYYADSVNGRFTISRDNAKITVYLQMNSLKPEDTAVYYCNKADPPEYDYWGQGTPVTVSS	high polyreactivity
QVQLVESGGGLVQAGGRLLLICAASGRIFIANAMGWYSKAPGKERELVATISRSGVSTNYADSVKVRFTISRDNAKNSVYLQMNSLKPEDTAVYYCADIRSGGQGQGYGYWGQVTQVTVSS	high polyreactivity
QVQLVESGGGLVQAGGRLPLSCAASGSTYSVNAMGWYRQAPGKERELVAAITRSGGSTYYADSVKGRFTISRDNAKNTVYLQMNSLNPEDTAVYYCAAEIYPLGEYWGQGTQVTVSS	low polyreactivity
QVQLVESGGGLVQAGGRLRFSCAASGSTIRRKAMGWSRQAPGKERELVARISYRGGSTYYADSVKGRFTSSRDNAKNTVYLQMNSLKPEATAVYYCAAPVYGVPEYDYWGQGPQVTVSS	low polyreactivity
QVQLVESGGGLVQAGGRLRISCAASGSIFEINAMGWYRQAPGKERELVAAITGSGGSTHYADSVKGRFPISRDNAKNTVYLQMNCLKPEDTAVYYCAAVPRYQYGYLGQGTQVTVSS	low polyreactivity
QVQLVESGGGLVQAGGRLRISSAASGRIFAYYAMGWYRQAPGKERELVAANTTNGGGTYYADSVKGRFTISRDNAKNTVSLQMNSLNPEDPAFYYCATQFEGPAGFNNWGQGTQVTVSS	low polyreactivity
QVQLVESGGGLVQAGGRLRLRCAASGFIFSIYTMGWYRQAPGKERELVAAISWSGGSKYYADSVKGRFTISRDNAKNTVYLQMNSLKPEDTAVYYCNRVQFSPVYRFREYDYWGQGTQVTVSS	high polyreactivity
QVQLVESGGGLVQAGGRLRLSCAASGFIFKYNAMGWSRQAPGKERELVAAISRGGRTYYADSVKGRFTISRDNAKNTVYLQMNSLKPEDTAVYYCAAVSHYPAGYDYWGQGTQVTVSS	high polyreactivity
QVQLVESGGGLVQAGGRLRLSCAASGFIVDDNTIGWYRQAPGKEREVFAAISYSAGSTYYADSVKGRFTISRDNAKNTVYFQLNSLKPEDTAVYYCAAQHYWVTCYLSSYDYWGQGTQVSVSS	low polyreactivity
QVQLVESGGGLVQAGGRLRLSCAASGFTFPWYTMGWYRQAPGKERELVAAISRSGGSTYYADSVKGRFTISRDNAKNTVYLQLNSLKPEDTAVYYCAAEQTRWPDITRYDYWGQGTQVTVSS	high polyreactivity
QVQLVESGGGLVQAGGRLRLSCAASGFTFSRNAMGWYRQAPGKERELVAAITASTSRTYYADSVKGRFTISRDNAKNTVYLQMTSLKQEDSAVYYCNAGRPGRGPYGYWGQGTQVTVSS	high polyreactivity
QVQLVESGGGLVQAGGRLRLSCAASGFTFSYNTMGWYRQEPGKERELVAAITGDVSTNYADSVKGRFTISRDNAKNTVYLQMNSVKPEDTAVYYCAARPNFPGYEDLSVDYDYWGQGTQVTVSS	low polyreactivity
QVQLVESGGGLVQAGGRLRLSCAASGFTFWRNAMGWYRQAPGKERELVAAISRRGGNTYYADSVKGRFTISRDNAKNCVYLQMNSLKPEDTAVYYCAADYSYYYGYDYWGQGTQVTVSS	high polyreactivity
QVQLVESGGGLVQAGGRLRLSCAASGFTVSYYGMGWSRQAPGKERELVATISSSGSTNYADSVKGRFTISRDNAKNSVYLQMNSLKPEDTAVYYCATDYADAGYYTTFDYWGQGTQVTVSS	high polyreactivity
